Assay results from patent US11453702B2, “Bicyclic peptide ligands specific for Nectin-4” (priority 2018, dated 2022).
*1 amine or outer side, *2 acyl side, *3 side chain or, on linkers, in order; H or OH if unused. Where a SMILES comes first, the peptide text is derived from it. Bridges are numbered along the chain shown (N, C = ends). Roman numbers before positions name the chains, in order. [ ]: non-standard residue; d: D form. The star is where a group is joined. ξ: configuration not given here. TATA = O=C(CC[*:1])N1CN(C(=O)CC[*:2])CN(C(=O)CC[*:3])C1; Dolaproine = CO[C@@H]([C@@H]1CCCN1)[C@@H](C)C(=O)O; X1 = CC[C@H](C)C(C(CC(=O)[*:2])OC)N(C)[*:1]; Dil = CC[C@H](C)[C@H](NC)[C@@H](CC(=O)O)OC; 1Nal = N[C@@H](Cc1cccc2ccccc12)C(=O)O; X3 = O=C(CCCC(=O)[*:2])NCCC(=O)[*:1]; PABC = O=C(OCc1ccc(N[*:1])cc1)[*:2]; X4 = C[C@@H](N*)[C@@H](O)c1ccccc1; Hyp = O=C(O)[C@@H]1C[C@@H](O)CN1; hArg = N=C(N)NCCCC[C@H](N)C(=O)O; Cit = NC(=O)NCCC[C@H](N)C(=O)O; X2 = CC(N*)[C@@H](O)c1ccccc1; NMeV = CN[C@H](C(=O)O)C(C)C; ξNMeV = CNC(C(=O)O)C(C)C; ξV = CC(C)C(N)C(=O)O; Sar = CNCC(=O)O

Legend:
HT-1376 xenograft = conditions: 5 mg/kg qw, during the treatment schedule
Method: All data were analyzed using GraphPad Prism 5.0. P<0.05 was considered to be statistically significant.
The objective of the research is to evaluate the in vivo anti-tumor efficacy of test articles in treatment of HT-1376 xenograft in CB17-SCID mice.
The HT-1376 tumor cells were maintained in vitro as a monolayer culture in EMEM medium supplemented with 10% heat inactivated fetal bovine serum at 37° C. in an atmosphere of 5% CO2 in air. The tumor cells were routinely subcultured twice weekly by trypsin-EDTA treatment. The cells growing in an exponential growth phase were harvested and counted for tumor inoculation.
Each mouse was inoculated subcutaneously at the right flank with HT-1376 tumor cells (5×10^6) in 0.2 ml of PBS with matrigel (1:1) for tumor development. Animals were randomized when the average tumor volume reached 153-164 mm^3. The test article administration and the animal numbers in each group were shown in the experimental design table.
The HT-1376 tumor cells will be maintained in EMEM medium supplemented with 10% heat inactivated fetal bovine serum at 37° C. in an atmosphere of 5% CO2 in air. The tumor cells will be routinely subcultured twice weekly. The cells growing in an exponential growth phase will be harvested and counted for tumor inoculation. […]

A549 xenograft = test: In vivo efficacy in A549 xenograft in Balb/c nude mice (Example 9.1); conditions: mouse
Method: (§1) The major endpoint was to see if the tumor growth could be delayed or mice could be cured. Tumor volume was measured three times weekly in two dimensions using a caliper, and the volume was expressed in mm^3 using the formula: V=0.5 a×b^2 where a and b are the long and short diameters of the tumor, respectively. The tumor size was then used for calculations of T/C value. The T/C value (in percent) is an indication of antitumor effectiveness; T and C are the mean volumes of the treated and control groups, respectively, on a given day.
(§2) TGI was calculated for each group using the formula: TGI (%)=[1−(Ti−T0)/(Vi−V0)]×100; Ti is the average tumor volume of a treatment group on a given day, T0 is the average tumor volume of the treatment group on the day of treatment start, Vi is the average tumor volume of the vehicle control group on the same day with Ti, and V0 is the average tumor volume of the vehicle group on the day of treatment start.
(§3) A one-way ANOVA was performed to compare tumor volume among groups, and when a significant F-statistics (a ratio of treatment variance to the error variance) was obtained, comparisons between groups were carried out with Games-Howell test. All data were analyzed using GraphPad Prism 5.0. P<0.05 was considered to be statistically significant. […]

NCI-H292 xenograft = test: In vivo efficacy in NCI-H292 xenograft (NSCLC model) in BALB/c nude mice (Examples 1, 5, 9.5); conditions: Ex 1; all treatment animals during the dosing schedule
Source text: The animals will be randomized and treatment will be started when the average tumor volume reaches approximately 158-406 mm^3.
The objective of the research is to evaluate the in vivo anti-tumor efficacy of test articles in treatment of NCI-H292 xenograft in Balb/c nude mice.

[1] = system: CTG-1771, CTG-1171, CTG-1106 and CTG-0896 PDX models; conditions: all models
Source text: To evaluate the antitumor activity of Bicycle Agent in Low Passage Champions TumorGraft Models of Human Breast, Esophageal, and Bladder Cancer in Immunocompromised mice.
Pre-study Animals: When sufficient stock animals reach 1.0-1.5 cm^3, tumors will be harvested for re-implantation into pre-study animals. Pre-study animals will be implanted unilaterally on the left flank with tumor fragments harvested from stock animals. Each animal is implanted from a specific passage lot and documented.
Study Animals: Pre-study tumor volumes are recorded for each experiment beginning seven to ten days after implantation. When tumors reach an average tumor volume of 150-300 mm^3, animals will be matched by tumor volume into treatment or control groups to be used for dosing and dosing initiated on Day 0.

[2] = BCY8245 (BT8009) injected at 3 mg/kg; MDA-MB-468 xenograft animals
Method: At various timepoints, animals were euthanized and plasma and tumour taken and snap frozen. Samples were analysed for MMAE.

NCI-H526 xenograft = conditions: 5 mg/kg biw (so in the source)
Method: as §1, §2, §3

MDA-MB-468 cell line = test: HCS assay, Nectin-4 BDC binding study (Example 11); type: cell-based
Method: HCS assay was used in Nectin-4 BDC binding study. Cells were incubated with test agent and then washed. Detection was by a fluorescent antibody to MMAE.

SMILES	animal bodyweight loss (HT-1376 xenograft)	bodyweight (in words) (A549 xenograft)	bodyweight (in words) (NCI-H292 xenograft)	tolerability compared with Docetaxel (in words) [1]	retention of MMAE in tumour versus plasma (in words) [2]	animal bodyweight loss (NCI-H526 xenograft)	binding affinity (Kd) on MDA-MB-468 cell line (in words) (MDA-MB-468 cell line)	retention on the cells (in words) (MDA-MB-468 cell line; MDA-MB-468 cells, detection by fluorescent antibody to MMAE)
CC[C@H](C)C(C(CC(=O)N1CCC[C@H]1[C@H](OC)[C@@H](C)C(=O)NC(C)[C@@H](O)c1ccccc1)OC)N(C)C(=O)[C@@H](NC(=O)C(C(C)C)N(C)C(=O)OCc1ccc(NC(=O)[C@H](CCCNC(N)=O)NC(=O)C(NC(=O)CCCC(=O)NCCC(=O)N(C)CC(=O)N(C)CC(=O)N(C)CC(=O)N(C)CC(=O)N(C)CC(=O)N(C)CC(=O)N(C)CC(=O)N(C)CC(=O)N(C)CC(=O)N(C)CC(=O)N[C@H]2CSCCC(=O)N3CN4CN(C3)C(=O)CCSC[C@H](NC(=O)[C@@H](CC(=O)O)NC(=O)[C@H](Cc3cccc5ccccc35)NC(=O)[C@@H]3CCCN3C2=O)C(=O)N[C@@H](CCSC)C(=O)N[C@@H](CCCCNC(=N)N)C(=O)N[C@@H](CC(=O)O)C(=O)N[C@@H](Cc2c[nH]c3ccccc23)C(=O)N[C@@H](CO)C(=O)N[C@@H]([C@@H](C)O)C(=O)N2CCC[C@H]2C(=O)N2C[C@H](O)C[C@H]2C(=O)N[C@@H](Cc2c[nH]c3ccccc23)C(=O)N[C@H](C(N)=O)CSCCC4=O)C(C)C)cc1)C(C)C (stereo partly drawn) [BCY8245, MMAE-PABC-Cit-Val-Glutaryl-BCY8234] (I: [Sar][Sar][Sar][Sar][Sar][Sar][Sar][Sar][Sar][Sar]CP[1Nal][dD]CM[hArg]DWSTP[Hyp]WC-NH2 / II: [ξV][Cit][PABC][ξNMeV]V[X1][Dolaproine]-X2; linker I:11-I:15-I:25 via TATA; linker I:N-II:N via X3)	over 10%	maintained the bodyweight well	continued bodyweight loss	better tolerated than Docetaxel	MMAE was retained in the tumour longer than in plasma	over 10%	–	–
CC[C@H](C)[C@@H]([C@@H](CC(=O)N1CCC[C@H]1[C@H](OC)[C@@H](C)C(=O)N[C@H](C)[C@@H](O)c1ccccc1)OC)N(C)C(=O)[C@@H](NC(=O)[C@@H](NC)C(C)C)C(C)C [MMAE, Monomethyl auristatin E] (H-[NMeV]V[Dil][Dolaproine]-X4)	–	–	–	–	–	–	almost no detectable binding affinity	minimal retention
